# Assay results published in publication PMC8231724, “A Glycolipid Glycosyltransferase with Broad Substrate Specificity from the Marine Bacterium “Candidatus Pelagibacter sp.” Strain HTCC7211” (Applied and Environmental Microbiology, 2021).
# B1: GTcp (Candidatus Pelagibacter sp. HTCC7211) (protein)
# chain: MKILIVTDAYYPQVNGVVRTLHETGEILKSQGHTIEYITPQQFLTVPMPKYNEIRLSLNVWPRVSNLINSIKPDAIHIATEGPLGFMARRHCIKKGLKFTTSFHTRFDKYIKLYMPIIPAKWSEKFLCNFHNKAERILVTTESMREELIALGVDNNKMVTWTRGGNHGAFKNPVKRDLPYKRPIWIYVGRVAVEKNIKAFLDLDLEGTKVIIGKGPNLNKLKKKYPNDYFLGEKTNGELASHFASSDVFVFPSKTDTFGIVVLESLSCGTPVAAYPVPGPKDILGGSKIDTLDQDLKTSALKALKVNREDCLEFAKKYSWEETARIFYNNISPN
# notes: full length, 334 aa (1,005 bp), codon-optimised synthetic gene in pET22b, His-tagged, E. coli BL21-CodonPlus(DE3)-RIL, Ni-NTA and Superdex 200, 38 kDa monomer, about 70 kDa dimer
# Assays:
# Experiment in all cases: LC-MS of glycolipid product, Hanes-Woolf plot
# Format in all cases: biochemical, Candidatus Pelagibacter sp. HTCC7211
# Details in all cases: acceptor C16:0/C18:1 DAG, no added Mg2+, Tricine-KOH pH 8.5, 35 °C, 2 mM DTT
# [1] = substrate: O=C(O)[C@H]1O[C@H](OP(=O)(O)OP(=O)(O)OC[C@H]2O[C@@H](n3ccc(=O)[nH]c3=O)[C@H](O)[C@@H]2O)[C@H](O)[C@@H](O)[C@@H]1O
# From the text: (§1) LC-MS of glycolipid product, Hanes-Woolf plot on GTcp
# [2] = substrate: O=c1ccn([C@@H]2O[C@H](CO[P@@](=O)(O)O[P@@](=O)(O)O[C@H]3O[C@H](CO)[C@@H](O)[C@H](O)[C@H]3O)[C@@H](O)[C@H]2O)c(=O)[nH]1
# From the text: as §1
# [3] = substrate: O=c1ccn([C@@H]2O[C@H](COP(=O)(O)OP(=O)(O)O[C@H]3O[C@H](CO)[C@H](O)[C@H](O)[C@H]3O)[C@@H](O)[C@H]2O)c(=O)[nH]1
# From the text: as §1
protein,measurement,setting,value
B1,Km,[1],68 ± 0.5 µM
same,kcat,[1],0.0675 ± 0.00167 s⁻¹
same,kcat/Km,[1],993 ± 60 M⁻¹ s⁻¹
same,Km,[2],82 ± 0.3 µM
same,kcat,[2],0.0975 ± 0.00667 s⁻¹
same,kcat/Km,[2],1190 ± 45 M⁻¹ s⁻¹
same,Km,[3],32 ± 0.4 µM
same,kcat,[3],0.0172 ± 0.005 s⁻¹
same,kcat/Km,[3],537 ± 48.3 M⁻¹ s⁻¹
